Assay results as given in publication PMC6423499 (2019).

Target: VHL (VHL/ElonginB/ElonginC, VCB) as used in solution (UniProt P40337 1-213; Q15370 1-104; Q15369 17-112)
Assay: FP; MZ1 ternary

Sequence of VHL (VHL/ElonginB/ElonginC, VCB) as used in solution (P40337 whole entry, chain 1 of 3): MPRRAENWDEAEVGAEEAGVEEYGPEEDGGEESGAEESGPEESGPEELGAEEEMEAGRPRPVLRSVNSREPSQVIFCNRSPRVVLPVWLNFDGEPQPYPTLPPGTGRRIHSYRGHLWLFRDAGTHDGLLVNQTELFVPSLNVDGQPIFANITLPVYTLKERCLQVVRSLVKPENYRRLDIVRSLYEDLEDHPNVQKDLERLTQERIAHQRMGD
Sequence of VHL (VHL/ElonginB/ElonginC, VCB) as used in solution (Q15370 1-104, chain 2 of 3): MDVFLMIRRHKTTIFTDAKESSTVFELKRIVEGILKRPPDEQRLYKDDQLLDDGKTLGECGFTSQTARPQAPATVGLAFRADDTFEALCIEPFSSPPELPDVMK
Sequence of VHL (VHL/ElonginB/ElonginC, VCB) as used in solution (Q15369 17-112, chain 3 of 3): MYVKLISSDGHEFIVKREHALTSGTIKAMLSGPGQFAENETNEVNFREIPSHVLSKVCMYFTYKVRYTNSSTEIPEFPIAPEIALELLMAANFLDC

Ki: 6 nM
B1: Brd2^BD2 with the G-to-E point mutation at Gly382 (domain or fragment)
chain: GKLSEQLKHCNGILKELLSKKHAAYAWPFYKPVDASALELHDYHDIIKHPMDLSTVKRKMENRDYRDAQEFAADVRLMFSNCYKYNPPDHDVVAMARKLQDVFEFRYAKMPD
